This is an account of results in patent publication US20240360223A1 (DRAGONFLY THERAPEUTICS, published 2024).

Residue numbers refer to the chain shown, from its start. Like-named read-outs stand apart in the source and are kept apart here.

The target of assay [1] is T1, human BAFF-R expressed on cells (human, UniProt Q96RJ3 1-184).
T1 construct: Cell surface BAFF-R, endogenous on B cell lines and primary B cells or overexpressed on isogenic CHO cells; also called hBAFF-R; hBAFF-R-CHO
As to the kind of experiment: flow cytometry, RAJI cells. The method, then: The BAFF-R positive human B lymphoblastoid RAJI cell line was used to assess TriNKET binding to cell surface BAFF-R. Certain BAFF-R TriNKETs in the 2-Fab and F3′ formats, as described in the “exemplary multispecific binding proteins” subsection above, were diluted and incubated with Raji cells. Binding patterns of TriNKETs and parental monoclonal antibodies were detected using a fluorophore conjugated anti-human IgG secondary antibody. The cells were then incubated with a fluorophore conjugated anti-human IgG secondary antibody and were analyzed by flow cytometry. The mean fluorescence intensity (MFI) values were normalized to secondary antibody only controls to obtain fold over background (FOB) values.

The target of assay [2] is T1, human BAFF-R expressed on cells. As to the kind of experiment: flow cytometry on hBAFFR-CHO cells. (In flow cytometry, cells or beads pass a laser one at a time.)
The target in assay [3] is T2, cynomolgus monkey BAFF-R expressed on cells (cynomolgus monkey).
T2 construct: whole, on cells; also called cBAFF-R; cynoBAFF-R
As to the kind of experiment: flow cytometry on cBAFFR-CHO cells.

Assay [4] deals with T1, human BAFF-R expressed on cells. As to the kind of experiment: blocking of BAFF-biotin on BAFF-R CHO cells.
Assay [5] shares this target. In words: blocking of BAFF-biotin on hBAFF-R CHO cells, flow cytometry. Here is the method:
Briefly, CHO cells expressing human BAFF-R were harvested, washed in cold FACS buffer, and seeded at a density of 100,000 cells per well. Test articles were diluted in FACS buffer, and 50 μL of diluted multispecific binding protein or mAb was added to cells, incubated on ice for 60 minutes, then washed with FACS buffer. […] Cells were incubated with 100 μL of 1:200 streptavidin-PE diluted in FACS buffer and incubated on ice for 30 minutes then washed with FACS buffer. Cells were then incubated in 100 μL of 1:1,000 dilution of live/dead dye in PBS for 15 minutes, then washed with FACS buffer, and fixed. After incubation, cells were washed with FACS buffer and resuspended in FACS buffer for analysis with flow cytometry. Median fluorescent intensity (MFI) of each sample and the secondary-only control was calculated. […] Data were fit to a four-parameter non-linear regression curve using GraphPad Prism.

The target is the same in assay [6]. In words: flow cytometry blocking assay on hBAFFR-CHO cells; blocked ligand: 20 nM BAFF-biotin.
Assay [7] shares this target. Described as above. This is another data set of the same source.
Assay [8] shares this target. Described as above. The source holds these as a separate data set.
The target is the same in assay [9]. As to the kind of experiment: flow cytometry, RL cells.
The target is the same in assay [10]. In words: flow cytometry, BJAB cells.
The target is the same in assay [11]. As to the kind of experiment: flow cytometry, Raji cells.
For assay [12] the target is unchanged. As to the kind of experiment: flow cytometry, Jeko-1 cells.
For assay [13] the target is unchanged. As to the kind of experiment: flow cytometry, Rs4;11 cells.
For assay [14] the target is unchanged. In words: flow cytometry, SUDHL-6 cells.
For assay [15] the target is unchanged. As to the kind of experiment: flow cytometry, CHO-hBAFF-R cells.
For assay [16] the target is unchanged. As to the kind of experiment: flow cytometry, human BAFF-R CHO cells. The source says:
Isogenic cell lines overexpressing human and cynomolgus BAFF-R on the backbone of CHO cell line were designed.

For assay [17] the target is unchanged. In words: flow cytometry, human BAFF-R+ isogenic CHO. The source says:
Isogenic cell lines overexpressing human and cynomolgus BAFF-R were developed from CHO cells.

Assay [18] addresses T3, human NKG2D expressed on cells (human, UniProt P26718 1-216).
T3 construct: whole, on cells; also called NKG2D on KHYG-1 cells; NKG2D-positive NK cells and CD8+ T cells
T3 sequence (looked up): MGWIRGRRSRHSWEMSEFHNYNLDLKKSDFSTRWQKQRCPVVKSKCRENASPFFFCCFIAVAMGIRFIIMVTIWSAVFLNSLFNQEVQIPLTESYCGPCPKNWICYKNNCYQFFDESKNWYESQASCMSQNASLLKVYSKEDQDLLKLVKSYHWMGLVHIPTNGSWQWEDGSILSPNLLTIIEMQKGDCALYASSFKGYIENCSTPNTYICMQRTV
As to the kind of experiment: flow cytometry on KHYG-1 cells (no CD16), MFI.

Assay [19] has as its target T2, cynomolgus monkey BAFF-R expressed on …. As to the kind of experiment: flow cytometry, cBAFF-R+ cells.
Assay [20] deals with T1, human BAFF-R expressed on cells. In words: flow cytometry, hBAFF-R+ cells.
In assay [21] the target is T2, cynomolgus monkey BAFF-R expressed on …. In words: flow cytometry, cyno BAFF-R CHO cells.
The target of assay [22] is T1, human BAFF-R expressed on cells. As to the kind of experiment: flow cytometry, human BAFF-R CHO cells. The source holds these as a separate data set.
The target is the same in assay [23]. In words: blocking of BAFF-biotin on hBAFF-R CHO cells.
Assay [24] shares this target. As to the kind of experiment: cell-based or functional assay.
For assay [25] the target is unchanged. As to the kind of experiment: flow cytometry, BAFF-R-CHO cells.
Assay [26] addresses T2, cynomolgus monkey BAFF-R expressed on …. In words: flow cytometry, cyno BAFF-R CHO cells. The source holds these as a separate data set.
Assay [27] has as its target T1, human BAFF-R expressed on cells. As to the kind of experiment: flow cytometry, human BAFF-R CHO cells. This is another data set of the same source.
For assay [28] the target is unchanged. In words: flow cytometry, BAFF-R CHO cells; isogenic CHO cells; human and cynomolgus not told apart.
Assay [29] shares this target. As to the kind of experiment: flow cytometry on hBAFFR-CHO cells, anti-mouse IgG(H+L)-PE.
Assay [30] has the same target. As to the kind of experiment: flow cytometry on hBAFFR-CHO cells, anti-mouse (H+L)-PE.

B1: Ianalumab-mAb (antibody, V domains shown)
VH: QVQLQQSGPGLVKPSQTLSLTCAISGDSVSSNSAAWGWIRQSPGRGLEWLGRIYYRSKWYNSYAVSVKSRITINPDTSKNQFSLQLNSVTPEDTAVYYCARYQWVPKIGVFDSWGQGTLVTVSS
VL: DIVLTQSPATLSLSPGERATLSCRASQFILPEYLSWYQQKPGQAPRLLIYGSSSRATGVPARFSGSGSGTDFTLTISSLEPEDFAVYYCQQFYSSPLTFGQGTKVEIK
notes: Parental control mAb; also called Ianalumab-based tool-mAb; Tool-mAb
For orientation: EC50 means the concentration giving half of the maximal effect. For orientation: EC50 (read off the curve) means the concentration at which the effect is half-maximal. As usually defined, the IC50 is the midpoint of a concentration-inhibition curve. As to B1, the EC50 in assay [1] was found to be 3 pM. Besides, the “EC50 (read off the curve)” value in assay [2] is around 0.5 nM; in assay [3] it was around 0.4 nM. Moreover, the IC50 in assay [4] is 0.38 nM; in assay [5], 0.5 nM. For the same molecule, the “IC50 (read off the curve)” value in assay [6] was around 0.4 nM; in assay [7], around 0.4 nM; in assay [8], around 0.8 nM.

B2: Parental mAb (AB1753) (antibody, V domains shown)
VH: EVQLVQSGGGVVQPGRSLRLSCAASGFTFSSYGMHWVRQAPGKGLEWVAVIWYDASNKYYGDSVKGRFTISRDNSKNTLYLQMNSLRDEDTAVYYCARRFTHLRGQYIEDYGLDVWGQGTTVTVSS
VL: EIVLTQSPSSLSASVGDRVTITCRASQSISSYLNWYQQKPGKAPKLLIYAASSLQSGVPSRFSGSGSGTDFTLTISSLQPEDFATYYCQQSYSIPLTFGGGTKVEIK
notes: also called parental BAFF-R specific antibody
Regarding B2, the EC50 is 0.14 nM in assay [9]; 0.18 nM in assay [10]; 0.1 nM in assay [11]; 0.07 nM in assay [12]; 0.06 nM in assay [13]; 0.19 nM in assay [14]. For the same molecule, the EC50 in assay [15] worked out at 0.39 nM; in assay [16] it was 0.4 nM; in assay [17], 0.39 nM. Further, the “Max FOB” value in assay [9] worked out at 6 fold over background; in assay [10], 12 fold over background; in assay [12], 5 fold over background; in assay [13] it was 3 fold over background; in [14] it was 13 fold over background; in assay [15] it was 123 fold over background. Further, the “Max FOB” value in assay [16] came out at 57 fold over background; in assay [17] it was 123 fold over background. Moreover, in [18], the binding result is listed as “no binding (tested: about 700 nM)”.

B3: AB1080 (bispecific antibody, V domains shown)
VH: B2 VH with G44C, Q106W
VL: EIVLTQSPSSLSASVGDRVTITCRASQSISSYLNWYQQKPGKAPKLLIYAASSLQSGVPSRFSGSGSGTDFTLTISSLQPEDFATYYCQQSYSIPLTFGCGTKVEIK
notes: also called AB1080-002; AB1080-003
As for B3, the EC50 in assay [19] is 1.36 nM; in assay [20] it was 1.97 nM; in [21], 2.36 nM; in assay [22] it was 2.71 nM. Further, the half-maximal inhibitory concentration (IC50) in assay [23] worked out at 5.72 nM.

B4: AB0369 (bispecific antibody, V domains shown)
VH: B2 VH with G44C, A55G, H102M, Q106L, Y107I, L113M
VL: not shown
notes: also called AB0369-001
As to B4, in assay [24], the “KHYG-A-CD16Av mediated Cytolysis of Ramos cells EC50” value was found to be 0.64 nM. In addition, the EC50 in assay [25] is above 10 nM; in [26], above 15 nM; in assay [21], 7.11 nM; in assay [27] it was above 10 nM; in assay [22], 6.8 nM; in [28], around 10 nM. For the same molecule, the 50% inhibitory concentration (IC50) in assay [23] is above 1000 nM; in assay [5], 488 nM.

B5: AB1085 (bispecific antibody, V domains shown)
VH: B2 VH with S30G, G44C, A55G, L113M
VL: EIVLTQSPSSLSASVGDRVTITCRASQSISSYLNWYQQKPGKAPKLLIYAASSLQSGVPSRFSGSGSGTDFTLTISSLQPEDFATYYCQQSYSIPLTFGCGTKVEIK
notes: also called AB1085-001
For the molecule B5, the EC50 in assay [19] amounted to 4.34 nM; in [20] it was 5.78 nM; in assay [21], 3.29 nM; in [22], 4.48 nM. For the same molecule, the IC50 in assay [23] stood at 12.7 nM.

B6: AB1081 (bispecific antibody, V domains shown)
VH: B2 VH with T28A, G44C, A55E, K76R, H102N, Q106W, Y107I
VL: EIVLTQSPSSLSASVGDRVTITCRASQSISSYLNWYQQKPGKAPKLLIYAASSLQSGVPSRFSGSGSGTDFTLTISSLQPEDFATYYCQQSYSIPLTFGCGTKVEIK
notes: also called AB1081-002
As for B6, the values for the EC50 in assay [19] and in assay [20] were above 14 nM and above 8 nM, respectively.

B7: 3A1 (antibody, V domains shown)
VH: QVQLQQPGAELVKPGASVKLSCKASGYTFTSYWMHWVKQRPGQGLEWIGEIDPFDSYTNYNQNFKGKATLTVDKSSSTAYMLLSSLTSDDSAVYYCARERLRLWSYYFDYWGQGTTLTVSS
VL: DVVMTQTPLSLPVSLGDQASISCRSSQSIVHSNGNTYLEWYLQKPGQSPKLLIYKVSNRLSGVPDRFSGSGSGTDFTLKISRVEAEDLGVYYCFQGSHDPFTFGSGTKLEIK
notes: Mouse hybridoma mAb from DNA immunization; also called clone 3A1
Consider B7, for which the “EC50 (read off the curve)” value in [29] is around 0.3 nM.

B8: 7G4 (antibody, V domains shown)
VH: B7 VH with I51V, F54S, N63K, M81I, S85N, L101V, Y107F
VL: B7 VL
notes: Mouse hybridoma mAb from DNA immunization; also called clone 7G4
For the molecule B8, the “EC50 (read off the curve)” value in assay [29] was around 0.3 nM.

B9: 10H7-C5 (antibody, V domains shown)
VH: EVQLVESGGGLVKPGGSLKLSCAASGFSFSRYAMSWVRQTPEKRLEWVATISDGGSYTHYRDNVKGRFTISRDNAKNNLNLQMSHLKSEDTAIYYCARNEMGLYFDYDVYAMDYWGQGTSVTVSS
VL: DIVMTQTPLSLPVSLGDQASISCRSSQSLLHSNGNTYLYWYLQKPGQSPKLLIHRVSNRFSGVPDRFGGSGSGTDFTLKIIRVEAEDLGVYFCFQGTHVPWTFGGGTKLEIK
notes: Mouse hybridoma mAb from DNA immunization; also called clone 10H7-C5
As for B9, the “EC50 (read off the curve)” value in assay [30] was in the range of 1 to 10 nM.

B10: 1B3-A7 (antibody, V domains shown)
VH: EVQLVESGGGLVKPGGSLKLSCVVSGFTFSNYAMSWVRQTPEKRLEWVATISDGGGYTYYPDSVKGRFTISRDNAKNNLYLQMSHLKSEDTAIYYCARDDLGGGNYVSSYFDVWGTGTTVTVSS
VL: B9 VL with I2V, L15P, L30V, H54Y, G68S, I81N, W101L, G105S, I111L
notes: Mouse hybridoma mAb from DNA immunization; also called clone 1B3-A7
Turning to B10, in assay [30], the “EC50 (read off the curve)” value is around 2 nM.
